The text below walks through data of patent US20230270857A1.

The assay concerns the target CD3 on ex vivo expanded human T cells (Homo sapiens) (UniProt P07766). Nature of the assay: flow cytometry referenced to quantum beads.

The substance “HER2-BsAb (trastuzumab x huOKT3, IgG-[L]-scFv format) (bispecific antibody)” showed a molar amount of BsAb bound per T cell (zeptomoles per T cell) of 1 to 35.
Then “GD2-BsAb (hu3F8-BsAb, anti-GD2 hu3F8 x anti-CD3 huOKT3, IgG-[L]-scFv format) (bispecific antibody)”, with 1 to 35.
